# Reference: article PMC7857489, “Degradation of MinD oscillator complexes by Escherichia coli ClpXP” (The Journal of Biological Chemistry, 2020)
# T1: MinD(R3E) (E. coli, UniProt P0AEZ3 1-270, R3E)
# T1 construct: MinD of Escherichia coli with Arg 3 changed to glutamate by site-directed mutagenesis; Same construct as m1 apart from R3E; source: E. coli BL21 (λDE3), overexpressed from a plasmid (pEt-MinD(R3E)), purified
# T1 sequence (looked up): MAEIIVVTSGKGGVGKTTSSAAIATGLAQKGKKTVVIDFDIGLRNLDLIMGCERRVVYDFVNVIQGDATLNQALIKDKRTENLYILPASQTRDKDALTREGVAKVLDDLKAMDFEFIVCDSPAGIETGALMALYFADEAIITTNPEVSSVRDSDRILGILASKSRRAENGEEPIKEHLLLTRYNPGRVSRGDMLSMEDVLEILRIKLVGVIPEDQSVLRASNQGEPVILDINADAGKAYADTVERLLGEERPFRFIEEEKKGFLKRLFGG
# Legend:
# MinD(R3E) = molecular target: T1, MinD(R3E); experiment: 90° light scatter; MinC (4 μM) and MinD or MinD(R3E) (8 μM) in 20 mM MES pH 6.5, 100 mM KCl, 10 mM MgCl2; after 5 min ATP added alone or with ClpX (0.75 μM), ClpX(E185Q) (0.75 μM), ClpP (0.9 μM) or ClpX and ClpP, with an ATP-regenerating system; monitored for 30 min more; conditions: both partners purified
# ClpX = molecular target: T2, ClpX (E. coli, UniProt P0A6H1 1-424); experiment: negative-stain transmission electron microscopy; MinC (4 μM), MinD or MinD(R3E) (8 μM), ATP (8 mM), with or without ClpXP, or ClpXP with ATP alone, in copolymer assembly buffer; carbon/formvar grids, fixed with glutaraldehyde, stained with uranyl acetate; conditions: both partners purified
# T2 construct: ClpX, AAA+ unfoldase of Escherichia coli; concentrations are reported as ClpX hexamers; Purified as a native protein by earlier published methods; also called wildtype ClpX; source: E. coli BL21 (λDE3), overexpressed from a plasmid, purified as native protein
Binder,binding result (MinD(R3E)),binding result (ClpX)
"MinC (natural protein, E. coli, UniProt P18196 1-231, looked up, concentrations are reported as MinC dimers; Purified as a native protein by earlier published methods; source: E. coli BL21 (λDE3), overexpressed from a plasmid (pEt-MinC), purified as native protein) MSNTPIELKGSSFTLSVVHLHEAEPKVIHQALEDKIAQAPAFLKHAPVVLNVSALEDPVNWSAMHKAVSATGLRVIGVSGCKDAQLKAEIEKMGLPILTEGKEKAPRPAPTPQAPAQNTTPVTKTRLIDTPVRSGQRIYAPQCDLIVTSHVSAGAELIADGNIHVYGMMRGRALAGASGDRETQIFCTNLMAELVSIAGEYWLSDQIPAEFYGKAARLQLVENALTVQPLN",binds,–
"ClpP (enzyme, ClpP, serine protease of Escherichia coli; concentrations are reported as ClpP tetradecamers; Purified as a native protein by earlier published methods; source: E. coli BL21 (λDE3), overexpressed from a plasmid, purified as native protein; copies: 14) not shown",–,binds
